Values quoted from earlier work, collected in US20050096266A1, “Preparation and method for weight reduction” (priority 2002, published 2005).

System: trypsin
Details: trypsin secreted into the duodenum by the pancreas; per one weight unit of inhibitor

B1: soybean trypsin inhibitor: Commercial proteinous trypsin inhibitor (Type Il-S, Sigma Chemical Co.) that binds trypsin, forming inactive complexes (protein, UniProt P01070 25-205, looked up)
Trypsin inhibitor A: DFVLDNEGNPLENGGTYYILSDITAFGGIRAAPTGNERCPLTVVQSRNELDKGIGTIISSPYRIRFIAEGHPLSLKFDSFAVIMLCVGIPTEWSVVEDLPEGPAVKIGENKDAMDGWFRLERVSDDEFNNYKLVFCPQQAEDDKCGDIGISIDHDDGTRRLVVSKNKPLVVQFQKLDKESL
  weight units of trypsin inactivated by one weight unit of the inhibitor: 2.5 weight units
